Experimental data published in patent US20210139548A1 (published 2021).
*1 amine or outer side, *2 acyl side, *3 side chain or, on linkers, in order; H or OH if unused. Side-chain parts run from the residue outwards. The star is where a group is joined. C18 diacid = O=C(O)CCCCCCCCCCCCCCCCC(=O)*; γGlu = O=C(O)[C@H](CCC(=O)[*:2])N[*:1]; Isovaleryl = CC(C)CC(=O)*; AEEA = NCCOCCOCC(=O)O

T1: human neuropeptide Y2 receptor (human, UniProt P49146 1-381)
T1 construct: whole, on cells; also called hNPY2 receptor; hNPY2-R
T1 sequence (looked up): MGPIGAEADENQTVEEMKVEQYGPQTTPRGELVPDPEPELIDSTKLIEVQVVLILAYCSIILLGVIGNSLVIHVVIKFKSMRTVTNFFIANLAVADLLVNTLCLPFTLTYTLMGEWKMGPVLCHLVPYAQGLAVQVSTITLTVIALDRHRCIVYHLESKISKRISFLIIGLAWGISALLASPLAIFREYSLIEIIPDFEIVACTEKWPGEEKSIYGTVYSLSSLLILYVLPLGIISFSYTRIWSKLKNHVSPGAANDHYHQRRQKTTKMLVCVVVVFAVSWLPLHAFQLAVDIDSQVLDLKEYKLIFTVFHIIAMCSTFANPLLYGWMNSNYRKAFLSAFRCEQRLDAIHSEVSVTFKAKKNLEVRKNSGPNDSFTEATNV


Target: T1, human neuropeptide Y2 receptor
Assay: radioligand competition (125I-PYY(1-36)), hNPY2R membranes
Summary of the method: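 Commercial human Y2 receptor membranes (0.5 μg protein/well) were incubated with peptide for 2 h at room temperature in 50 mM HEPES, 5 mM MgCl₂, 1 mM CaCl₂, pH 7.4, with 0.2% ovalbumin. Bound radioligand was separated on PEI-soaked GF/C filters and counted by scintillation, and IC₅₀ came from nonlinear sigmoidal regression.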

Row | Ki | Binder
1 | 0.4 nM | Isovaleryl-APEK([AEEA-AEEA-γGlu-C18 diacid])PPEDASPEEIQRYYVSLRHYYNWLTRQRY-NH2 (SMILES CC[C@H](C)[C@H](NC(=O)[C@H](CCC(=O)O)NC(=O)[C@H](CCC(=O)O)NC(=O)[C@@H]1CCCN1C(=O)[C@H](CO)NC(=O)[C@H](C)NC(=O)[C@H](CC(=O)O)NC(=O)[C@H](CCC(=O)O)NC(=O)[C@@H]1CCCN1C(=O)[C@@H]1CCCN1C(=O)[C@H](CCCCNC(=O)COCCOCCNC(=O)COCCOCCNC(=O)CC[C@H](NC(=O)CCCCCCCCCCCCCCCCC(=O)O)C(=O)O)NC(=O)[C@H](CCC(=O)O)NC(=O)[C@@H]1CCCN1C(=O)[C@H](C)NC(=O)CC(C)C)C(=O)N[C@@H](CCC(N)=O)C(=O)N[C@@H](CCCNC(=N)N)C(=O)N[C@@H](Cc1ccc(O)cc1)C(=O)N[C@@H](Cc1ccc(O)cc1)C(=O)N[C@H](C(=O)N[C@@H](CO)C(=O)N[C@@H](CC(C)C)C(=O)N[C@@H](CCCNC(=N)N)C(=O)N[C@@H](Cc1c[nH]cn1)C(=O)N[C@@H](Cc1ccc(O)cc1)C(=O)N[C@@H](Cc1ccc(O)cc1)C(=O)N[C@@H](CC(N)=O)C(=O)N[C@@H](Cc1c[nH]c2ccccc12)C(=O)N[C@@H](CC(C)C)C(=O)N[C@H](C(=O)N[C@@H](CCCNC(=N)N)C(=O)N[C@@H](CCC(N)=O)C(=O)N[C@@H](CCCNC(=N)N)C(=O)N[C@@H](Cc1ccc(O)cc1)C(N)=O)[C@@H](C)O)C(C)C) [Compound 61]
2 | 8.47 nM | Isovaleryl-APEK([AEEA-AEEA-γGlu-C18 diacid])PEEEASPEELQAYYVSLRHYYNWLTRQRY-NH2 (SMILES CC(C)CC(=O)N[C@@H](C)C(=O)N1CCC[C@H]1C(=O)N[C@@H](CCC(=O)O)C(=O)N[C@@H](CCCCNC(=O)COCCOCCNC(=O)COCCOCCNC(=O)CC[C@H](NC(=O)CCCCCCCCCCCCCCCCC(=O)O)C(=O)O)C(=O)N1CCC[C@H]1C(=O)N[C@@H](CCC(=O)O)C(=O)N[C@@H](CCC(=O)O)C(=O)N[C@@H](CCC(=O)O)C(=O)N[C@@H](C)C(=O)N[C@@H](CO)C(=O)N1CCC[C@H]1C(=O)N[C@@H](CCC(=O)O)C(=O)N[C@@H](CCC(=O)O)C(=O)N[C@@H](CC(C)C)C(=O)N[C@@H](CCC(N)=O)C(=O)N[C@@H](C)C(=O)N[C@@H](Cc1ccc(O)cc1)C(=O)N[C@@H](Cc1ccc(O)cc1)C(=O)N[C@H](C(=O)N[C@@H](CO)C(=O)N[C@@H](CC(C)C)C(=O)N[C@@H](CCCNC(=N)N)C(=O)N[C@@H](Cc1c[nH]cn1)C(=O)N[C@@H](Cc1ccc(O)cc1)C(=O)N[C@@H](Cc1ccc(O)cc1)C(=O)N[C@@H](CC(N)=O)C(=O)N[C@@H](Cc1c[nH]c2ccccc12)C(=O)N[C@@H](CC(C)C)C(=O)N[C@H](C(=O)N[C@@H](CCCNC(=N)N)C(=O)N[C@@H](CCC(N)=O)C(=O)N[C@@H](CCCNC(=N)N)C(=O)N[C@@H](Cc1ccc(O)cc1)C(N)=O)[C@@H](C)O)C(C)C) [Compound 68]
3 | 1.02 nM | Isovaleryl-APEK([AEEA-AEEA-γGlu-C18 diacid])PEEDASPEELQRYYVEIRHYYNWLTRQRY-NH2 (SMILES CC[C@H](C)[C@H](NC(=O)[C@H](CCC(=O)O)NC(=O)[C@@H](NC(=O)[C@H](Cc1ccc(O)cc1)NC(=O)[C@H](Cc1ccc(O)cc1)NC(=O)[C@H](CCCNC(=N)N)NC(=O)[C@H](CCC(N)=O)NC(=O)[C@H](CC(C)C)NC(=O)[C@H](CCC(=O)O)NC(=O)[C@H](CCC(=O)O)NC(=O)[C@@H]1CCCN1C(=O)[C@H](CO)NC(=O)[C@H](C)NC(=O)[C@H](CC(=O)O)NC(=O)[C@H](CCC(=O)O)NC(=O)[C@H](CCC(=O)O)NC(=O)[C@@H]1CCCN1C(=O)[C@H](CCCCNC(=O)COCCOCCNC(=O)COCCOCCNC(=O)CC[C@H](NC(=O)CCCCCCCCCCCCCCCCC(=O)O)C(=O)O)NC(=O)[C@H](CCC(=O)O)NC(=O)[C@@H]1CCCN1C(=O)[C@H](C)NC(=O)CC(C)C)C(C)C)C(=O)N[C@@H](CCCNC(=N)N)C(=O)N[C@@H](Cc1c[nH]cn1)C(=O)N[C@@H](Cc1ccc(O)cc1)C(=O)N[C@@H](Cc1ccc(O)cc1)C(=O)N[C@@H](CC(N)=O)C(=O)N[C@@H](Cc1c[nH]c2ccccc12)C(=O)N[C@@H](CC(C)C)C(=O)N[C@H](C(=O)N[C@@H](CCCNC(=N)N)C(=O)N[C@@H](CCC(N)=O)C(=O)N[C@@H](CCCNC(=N)N)C(=O)N[C@@H](Cc1ccc(O)cc1)C(N)=O)[C@@H](C)O) [Compound 65]
4 | 5.74 nM | Isovaleryl-APEK([AEEA-AEEA-γGlu-C18 diacid])PEEDSSAEELQRYYVSLRHYYNWLTRQRY-NH2 (SMILES CC(C)CC(=O)N[C@@H](C)C(=O)N1CCC[C@H]1C(=O)N[C@@H](CCC(=O)O)C(=O)N[C@@H](CCCCNC(=O)COCCOCCNC(=O)COCCOCCNC(=O)CC[C@H](NC(=O)CCCCCCCCCCCCCCCCC(=O)O)C(=O)O)C(=O)N1CCC[C@H]1C(=O)N[C@@H](CCC(=O)O)C(=O)N[C@@H](CCC(=O)O)C(=O)N[C@@H](CC(=O)O)C(=O)N[C@@H](CO)C(=O)N[C@@H](CO)C(=O)N[C@@H](C)C(=O)N[C@@H](CCC(=O)O)C(=O)N[C@@H](CCC(=O)O)C(=O)N[C@@H](CC(C)C)C(=O)N[C@@H](CCC(N)=O)C(=O)N[C@@H](CCCNC(=N)N)C(=O)N[C@@H](Cc1ccc(O)cc1)C(=O)N[C@@H](Cc1ccc(O)cc1)C(=O)N[C@H](C(=O)N[C@@H](CO)C(=O)N[C@@H](CC(C)C)C(=O)N[C@@H](CCCNC(=N)N)C(=O)N[C@@H](Cc1c[nH]cn1)C(=O)N[C@@H](Cc1ccc(O)cc1)C(=O)N[C@@H](Cc1ccc(O)cc1)C(=O)N[C@@H](CC(N)=O)C(=O)N[C@@H](Cc1c[nH]c2ccccc12)C(=O)N[C@@H](CC(C)C)C(=O)N[C@H](C(=O)N[C@@H](CCCNC(=N)N)C(=O)N[C@@H](CCC(N)=O)C(=O)N[C@@H](CCCNC(=N)N)C(=O)N[C@@H](Cc1ccc(O)cc1)C(N)=O)[C@@H](C)O)C(C)C) [Compound 69]
5 | 3.13 nM | Isovaleryl-APEK([AEEA-AEEA-γGlu-C18 diacid])PEEDASPEELQRYYVSLRAYYNWLTRQRY-NH2 (SMILES CC(C)CC(=O)N[C@@H](C)C(=O)N1CCC[C@H]1C(=O)N[C@@H](CCC(=O)O)C(=O)N[C@@H](CCCCNC(=O)COCCOCCNC(=O)COCCOCCNC(=O)CC[C@H](NC(=O)CCCCCCCCCCCCCCCCC(=O)O)C(=O)O)C(=O)N1CCC[C@H]1C(=O)N[C@@H](CCC(=O)O)C(=O)N[C@@H](CCC(=O)O)C(=O)N[C@@H](CC(=O)O)C(=O)N[C@@H](C)C(=O)N[C@@H](CO)C(=O)N1CCC[C@H]1C(=O)N[C@@H](CCC(=O)O)C(=O)N[C@@H](CCC(=O)O)C(=O)N[C@@H](CC(C)C)C(=O)N[C@@H](CCC(N)=O)C(=O)N[C@@H](CCCNC(=N)N)C(=O)N[C@@H](Cc1ccc(O)cc1)C(=O)N[C@@H](Cc1ccc(O)cc1)C(=O)N[C@H](C(=O)N[C@@H](CO)C(=O)N[C@@H](CC(C)C)C(=O)N[C@@H](CCCNC(=N)N)C(=O)N[C@@H](C)C(=O)N[C@@H](Cc1ccc(O)cc1)C(=O)N[C@@H](Cc1ccc(O)cc1)C(=O)N[C@@H](CC(N)=O)C(=O)N[C@@H](Cc1c[nH]c2ccccc12)C(=O)N[C@@H](CC(C)C)C(=O)N[C@H](C(=O)N[C@@H](CCCNC(=N)N)C(=O)N[C@@H](CCC(N)=O)C(=O)N[C@@H](CCCNC(=N)N)C(=O)N[C@@H](Cc1ccc(O)cc1)C(N)=O)[C@@H](C)O)C(C)C) [Compound 63]
6 | 4.37 nM | Isovaleryl-APEK([AEEA-AEEA-γGlu-C18 diacid])PEEDSAPEELQRYYVSLRHYYNWLTRQRY-NH2 (SMILES CC(C)CC(=O)N[C@@H](C)C(=O)N1CCC[C@H]1C(=O)N[C@@H](CCC(=O)O)C(=O)N[C@@H](CCCCNC(=O)COCCOCCNC(=O)COCCOCCNC(=O)CC[C@H](NC(=O)CCCCCCCCCCCCCCCCC(=O)O)C(=O)O)C(=O)N1CCC[C@H]1C(=O)N[C@@H](CCC(=O)O)C(=O)N[C@@H](CCC(=O)O)C(=O)N[C@@H](CC(=O)O)C(=O)N[C@@H](CO)C(=O)N[C@@H](C)C(=O)N1CCC[C@H]1C(=O)N[C@@H](CCC(=O)O)C(=O)N[C@@H](CCC(=O)O)C(=O)N[C@@H](CC(C)C)C(=O)N[C@@H](CCC(N)=O)C(=O)N[C@@H](CCCNC(=N)N)C(=O)N[C@@H](Cc1ccc(O)cc1)C(=O)N[C@@H](Cc1ccc(O)cc1)C(=O)N[C@H](C(=O)N[C@@H](CO)C(=O)N[C@@H](CC(C)C)C(=O)N[C@@H](CCCNC(=N)N)C(=O)N[C@@H](Cc1c[nH]cn1)C(=O)N[C@@H](Cc1ccc(O)cc1)C(=O)N[C@@H](Cc1ccc(O)cc1)C(=O)N[C@@H](CC(N)=O)C(=O)N[C@@H](Cc1c[nH]c2ccccc12)C(=O)N[C@@H](CC(C)C)C(=O)N[C@H](C(=O)N[C@@H](CCCNC(=N)N)C(=O)N[C@@H](CCC(N)=O)C(=O)N[C@@H](CCCNC(=N)N)C(=O)N[C@@H](Cc1ccc(O)cc1)C(N)=O)[C@@H](C)O)C(C)C) [Compound 67]
